Measured values taken from US20150037333A1 (NEXVET AUSTRALIA, published 2015).

B1: canine TNFR-HCB (caTNFRp50:ca IgGHCB Fc), SEQ ID NO:7 (Fc fusion)
chain: LVPHPRNRVKRAILCPQGKYIHPQDDSICCTKCHKGTYLYNDCPGPGLDTDCRECENGTFTASENHLRQCLSCSKCRKEMNQVEISPCTVYRDTVCGCRKNQYRFYWSETLFQCNNCSLCLNGTVQISCQEKQNTICTCHAGFFLREHECVSCVNCKKNTECGKLCLPPVETVKVPQDPGSTPKRENGRVPRPPDCPKCPAPEMLGGPSVFIFPPKPKDTLLIARTPEVTCVVVDLDPEDPEVQISWFVDGKQMQTAKTQPREEQFNGTYRVVSVLPIGHQDWLKGKQFTCKVNNKALPSPIERTISKARGQAHQPSVYVLPPSREELSKNTVSLTCLIKDFYPPDIDVEWQSNGQQEPESKYRTTPPQLDEDGSYFLYSKLSVDKSRWQRGDTFICAVMHEALHNHYTQESLSHSPGK
notes: Expressed in CHO cells; also called caTNFrecp60-HCB; canine TNFR-HCB fusion protein
B2: canine TNFR-HCC (caTNFRp50:ca IgGHCC Fc), SEQ ID NO:8 (Fc fusion)
chain: LVPHPRNRVKRAILCPQGKYIHPQDDSICCTKCHKGTYLYNDCPGPGLDTDCRECENGTFTASENHLRQCLSCSKCRKEMNQVEISPCTVYRDTVCGCRKNQYRFYWSETLFQCNNCSLCLNGTVQISCQEKQNTICTCHAGFFLREHECVSCVNCKKNTECGKLCLPPVETVKVPQDPGSTAKECECKCNCNNCPCPGCGLLGGPSVFIFPPKPKDILVTARTPTVTCVVVDLDPENPEVQISWFVDSKQVQTANTQPREEQSNGTYRVVSVLPIGHQDWLSGKQFKCKVNNKALPSPIEEIISKTPGQAHQPNVYVLPPSRDEMSKNTVTLTCLVKDFFPPEIDVEWQSNGQQEPESKYRMTPPQLDEDGSYFLYSKLSVDKSRWQRGDTFICAVMHEALHNHYTQISLSHSPGK
notes: Expressed in CHO cells; also called caTNFrecp60-HCC; canine TNFR-HCC fusion protein

How the values were obtained:
[1] = biological target: T1, complement C1q (from normal human serum) (human, UniProt P02745 23-245; P02746 28-253; P02747 29-245); assay: C1q binding ELISA; fusion protein on plates coated with canine TNF (4 µg/ml), human serum as source of complement
T1 construct: Native C1q in normal human serum, detected with a C1q reactive polyclonal antibody-HRP conjugate
Protocol: The canine TNFR-HCB, canine TNFR-HCC and human TNFR-canine HCB fusion proteins were incubated with plates pre-coated with canine TNF (4 μg/ml). For comparison, a caninised monoclonal antibody (MAb, canine isotype HCB) with specificity to nerve growth factor (NGF) was incubated with plates coated with NGF. The plates were washed and incubated with normal or heat-killed human serum as a source of complement. Binding of complement C1q was detected using a C1q reactive polyclonal antibody-HRP conjugate.

canine TNF-alpha = canine TNF-alpha (canine, UniProt P51742 77-233); assay: cell-based or functional assay
Chain of canine TNF-alpha (P51742 77-233 limits assumed): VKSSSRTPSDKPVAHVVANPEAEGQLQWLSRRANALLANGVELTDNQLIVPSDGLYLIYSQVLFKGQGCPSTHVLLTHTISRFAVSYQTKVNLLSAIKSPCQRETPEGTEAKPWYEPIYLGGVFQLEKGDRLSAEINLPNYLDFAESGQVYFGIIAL

T1 sequence (P02745 23-245 limits assumed, chain 1 of 3): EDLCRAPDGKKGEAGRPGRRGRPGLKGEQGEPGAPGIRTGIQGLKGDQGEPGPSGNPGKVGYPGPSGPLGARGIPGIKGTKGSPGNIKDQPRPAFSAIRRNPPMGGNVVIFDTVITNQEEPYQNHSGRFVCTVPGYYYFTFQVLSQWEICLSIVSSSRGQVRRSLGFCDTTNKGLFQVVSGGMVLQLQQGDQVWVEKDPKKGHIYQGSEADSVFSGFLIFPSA
T1 sequence (P02746 28-253 limits assumed, chain 2 of 3): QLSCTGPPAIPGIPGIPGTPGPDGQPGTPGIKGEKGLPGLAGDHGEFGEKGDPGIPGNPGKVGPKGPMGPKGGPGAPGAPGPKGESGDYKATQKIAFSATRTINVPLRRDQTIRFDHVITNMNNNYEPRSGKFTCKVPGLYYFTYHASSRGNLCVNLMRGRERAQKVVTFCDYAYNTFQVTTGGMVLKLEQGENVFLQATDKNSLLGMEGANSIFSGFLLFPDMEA
T1 sequence (P02747 29-245 limits assumed, chain 3 of 3): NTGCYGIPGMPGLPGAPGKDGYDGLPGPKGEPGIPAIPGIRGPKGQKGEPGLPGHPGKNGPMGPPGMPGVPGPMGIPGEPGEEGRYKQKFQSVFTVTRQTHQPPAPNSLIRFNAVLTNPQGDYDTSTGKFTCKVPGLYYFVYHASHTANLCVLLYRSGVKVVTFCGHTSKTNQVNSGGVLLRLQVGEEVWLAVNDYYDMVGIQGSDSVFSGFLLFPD

| Binder | binding result [1] | inhibition of canine TNF-alpha bioactivity (1 ng/ml) in 293-HEK cells with NF-kB-EGFP reporter construct pTRH1; IC50 (canine TNF-alpha) [ng/ml] |
| --- | --- | --- |
| B1 | no binding | ~1 |
| B2 | no binding | ~1 |
